In one experiment the target is recombinant FcγRI (UniProt P12314). Put plainly: ELISA. The note with it: highest mAb concentration, about 200 nM (est. from x axis); parent: est. 0.73; read off a plot.
For experiment [1], the target named is Biotinylated MPER peptide (HIV-1). The experiment can be described thus: BLI; biotinylated MPER peptide (30 nM) loaded on streptavidin biosensors to 0.6 nm, Octet RED96; Fabs at 50 and 100 nM; 0.5% BSA in PBS with 0.05% Tween 20; association 5 min, dissociation 10 min; values of the two concentrations averaged.

Sequence of UniProt P12314 (P12314 16-292): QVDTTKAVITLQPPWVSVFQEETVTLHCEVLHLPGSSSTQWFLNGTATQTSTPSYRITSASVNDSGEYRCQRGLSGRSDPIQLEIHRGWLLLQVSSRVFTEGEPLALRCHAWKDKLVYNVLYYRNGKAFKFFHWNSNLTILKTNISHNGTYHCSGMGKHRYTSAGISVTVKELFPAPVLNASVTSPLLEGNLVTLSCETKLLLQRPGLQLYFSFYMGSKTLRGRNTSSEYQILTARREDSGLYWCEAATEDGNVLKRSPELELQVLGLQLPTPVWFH

Take “10E8v4 WT antibody (IgG) L234A; L235A; P329G”: the response (Absorbance at 450nm) with recombinant FcγRI stood at 0.05.

As to 10E8 Fab, in experiment [1], the dissociation constant Kd is 3.8 nM and the koff was 0.0016 s⁻¹.

As a reminder, the Kd is a measure of binding affinity in units of concentration. A high value points to lower affinity. Broadly, the koff is the first-order rate constant of dissociation.
